What all share (experiment): binding to purified HLA
Assay [1] addresses DRB1*1501.
Assay [2] has as its target DRB1*0101.
In assay [3] the target is DRB1*0405.
In assay [4] the target is DRB1*1101.
For assay [5], the target named is DRB1*0301.
The target in assay [6] is DRB4*0101.
Assay [7] deals with DRB1*0802.
Assay [8] concerns the target DRB1*0401.
In assay [9] the target is DRB1*0701.
Assay [10] deals with DRB1*1302.
Assay [11] concerns the target DRB1*0901.
The target in assay [12] is DRB5*0101.
The target of assay [13] is DRB1*0404.

Consider AAAHFVAANTLHAAA [H4.N9.H12], for which the 50% inhibitory concentration (IC50) in [1] amounted to 79 nM; in assay [2], 4.1 nM; in [3], 18 nM; in assay [4], 22 nM; in [5] it was 361 nM; in assay [6] it was 862 nM. The IC50 came to 17 nM in assay [7]; 4.5 nM in [8]; 76 nM in assay [9]; 47 nM in assay [10]; 37 nM in assay [11]; 33 nM in assay [12]. Also, the IC50 in assay [13] was found to be 6.8 nM.

Values taken from patent US20160114035A1 (published 2016).
